Laboratory results published in patent US20260125725A1 (ANTHEIA, published 2026).

How the values were obtained:
[1] = molecular target: the molecule itself; experiment: BS3 chemical cross-linking of purified recombinant protein, SDS-PAGE and immunoblot
Experimental: (§1) All versions of THS1 and THS2 transcripts were codon-optimized and expressed in E. coli. Purified recombinant THS proteins were added to SalAT-coupled enzyme assays. […] Chemical cross-linking with the purified, recombinant THS proteins was performed to confirm dimerization (FIGS. 15A and 15B). Both THS1 and THS2 can form homodimers, and also display the formation of higher molecular weight oligomers at lower abundance. […] To further investigate the relative abundance of THS isoforms in the plant, protein extracts derived from whole stem, latex-free stem, and latex isolated from the T chemotype were subjected to proteomics analysis (FIG. 11C). In detected peptides with at least one amino acid substitution spectral counts for THS2 were considerably higher than for THS1, consistent with the higher abundance of THS2, compared with THS1, transcripts (FIG. 12C).
(§2) Cross-linking experiments. Bis[sulfosuccinimidyl] suberate (BS3) was used as cross-linking reagent and prepared in PBS buffer at a concentration of 10 mM, of which 2 μL was added to 20 μL of purified recombinant protein (1 μg/μL). After incubation on ice for 1 h, 5 μL of 5×SDS (10% w/v) was added to quench the reaction. Samples were then boiled for 5 min and subjected to SDS-PAGE and immunoblot analysis.

[2] = molecular target: the molecule itself; experiment: cross-linking, SDS-PAGE and immunoblot (FIG. 15A)
Experimental: as §1, §2

[3] = molecular target: the molecule itself; experiment: size exclusion chromatography of purified recombinant THS2 (FIG. 15B)

Protein	binding result [1]	other results
THS1 (thebaine synthesis polypeptide isoform, SEQ ID NO. 80) (enzyme, Purified recombinant protein from E. coli, made from a codon-optimized gene; It carries a His6-tag; 181 amino acids; also called thebaine synthase 1) MDSINSSIYFCAYFRELIIKLLMAPLGVSGLVGKLSTELEVDCDAEKYYNMYKHGEDVQKAVPHLCVDVKVISGDPTRSGCIKEWNVNIDGKTIRSVEETTHNDETKTLRHRVFEGDMMKDFKKFDTIMVVNPKPDGNGCVVTRSIEYEKTNENSPTPFDYLQFGHQAIEDMNKYLRDSE	binds	–
THS2s (N-terminally truncated splice variant of THS2, SEQ ID NO. 32) (enzyme, Purified recombinant His6-tagged protein from E. coli; 133 amino acids; also called BetV1-1S; Bet v1-1S) MYKHGEDVKKAVPHLCVDVKIISGDPTSSGCIKEWNVNIDGKTIRSVEETTHDDETKTLRHRVFEGDVMKDFKKFDTIMVVNPKPDGNGCVVTRSIEYEKTNENSPTPFDYLQFGHQAIEDMNKYLRDSESN	–	binding result [2]: binds
THS2 (thebaine synthesis polypeptide isoform, SEQ ID NO. 6) (enzyme, Purified recombinant protein from E. coli, made from a codon-optimized gene; 163 amino acids; also called Betv1; Betv1M) MAPLGVSGLVGKLSTELEVDCDAEKYYNMYKHGEDVKKAVPHLCVDVKIISGDPTSSGCIKEWNVNIDGKTIRSVEETTHDDETKTLRHRVFEGDVMKDFKKFDTIMVVNPKPDGNGCVVTRSIEYEKTNENSPTPFDYLQFGHQAIEDMNKYLRDSESN	–	binding result [3]: binds
THS1s (N-terminally truncated splice variant of THS1, SEQ ID NO. 81) (enzyme, Purified recombinant His6-tagged protein from E. coli; 131 amino acids) MYKHGEDVQKAVPHLCVDVKVISGDPTRSGCIKEWNVNIDGKTIRSVEETTHNDETKTLRHRVFEGDMMKDFKKFDTIMVVNPKPDGNGCVVTRSIEYEKTNENSPTPFDYLQFGHQAIEDMNKYLRDSE	binds	–
